Kd and kon data for one substance are collected here from PMC8706527.

Assay [1] deals with recombinant human FcγRIIIa-Phe (human) (UniProt P08637). Briefly: SPR.
In assay [2] the target is recombinant human neonatal Fc receptor (rhFcRn) (human) (UniProt P55899). Briefly: SPR. (In SPR one partner is held on a chip, and binding of the other changes the refractive index at the surface.)
recombinant human neonatal Fc receptor (rhFcRn) (human), sequence (P55899 whole entry, looked up, tested part not stated): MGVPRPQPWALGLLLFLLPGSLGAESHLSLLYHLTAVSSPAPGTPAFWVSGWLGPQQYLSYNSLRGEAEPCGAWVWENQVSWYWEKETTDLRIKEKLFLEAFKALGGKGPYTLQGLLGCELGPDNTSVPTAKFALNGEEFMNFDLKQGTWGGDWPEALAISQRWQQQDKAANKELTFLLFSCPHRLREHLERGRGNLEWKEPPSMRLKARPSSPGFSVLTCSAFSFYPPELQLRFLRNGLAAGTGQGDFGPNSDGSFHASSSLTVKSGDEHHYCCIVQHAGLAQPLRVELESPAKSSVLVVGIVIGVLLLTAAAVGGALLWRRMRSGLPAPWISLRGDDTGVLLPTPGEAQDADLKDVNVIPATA

recombinant human FcγRIIIa-Phe (human), sequence (P08637 17-208): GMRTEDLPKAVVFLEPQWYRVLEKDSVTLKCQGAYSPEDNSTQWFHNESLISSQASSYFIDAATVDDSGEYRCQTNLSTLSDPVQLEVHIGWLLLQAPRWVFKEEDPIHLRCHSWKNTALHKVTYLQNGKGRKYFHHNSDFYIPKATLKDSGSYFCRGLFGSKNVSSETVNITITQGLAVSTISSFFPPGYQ

By Kd is commonly meant the constant that tells how readily two partners part at equilibrium. Usually kon stands for the second-order rate constant of association. Turning to “wild type IgG1 (modified ZRC-3308 mAb with wild type Fc) (antibody)”, the Kd in assay [1] is 1.62 µM. In assay [2], the Kd worked out at 0.195 µM and the kon was 986000 M⁻¹ s⁻¹.
